Measured values reported in patent US20030199671A1, “Binding molecules for Fc-region polypeptides” (priority 2001, published 2003).
Where two headings read alike, the source gives them in different places. Non-standard residues stand in square brackets, D forms with d. Nle = CCCC[C@H](N)C(=O)O

How the values were obtained:
Assay type in all cases: binding
[1] = molecular target: T1, human IgG1 (Homo sapiens, UniProt P01857)
T1 construct: all human subtypes derived from myeloma patients; purchased Calbiochem 400120; host or cells: myeloma patients
T1 sequence (P01857 1-330 isoform P01857-1): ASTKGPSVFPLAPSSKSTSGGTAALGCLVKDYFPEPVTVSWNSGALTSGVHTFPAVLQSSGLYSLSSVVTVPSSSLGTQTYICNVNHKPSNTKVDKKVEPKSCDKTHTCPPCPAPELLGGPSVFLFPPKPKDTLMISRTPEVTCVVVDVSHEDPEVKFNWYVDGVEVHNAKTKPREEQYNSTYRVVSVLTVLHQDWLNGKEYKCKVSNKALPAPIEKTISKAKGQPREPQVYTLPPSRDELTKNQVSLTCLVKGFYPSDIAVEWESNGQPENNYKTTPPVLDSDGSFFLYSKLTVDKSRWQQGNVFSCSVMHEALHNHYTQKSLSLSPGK
Method: (§1) In addition, the following targets, all unfractionated IgGs, were also evaluated with selected immobilized peptides for species specificity characterization in a similar format: human IgG, goat IgG, bovine IgG, and mouse IgG (Sigma, product nos. I4506, I5256, I5506, and I15381, respectively). In addition, 10 μl aliquots of hydrolyzed NHS-activated Sepharose 4 Fast Flow (Amersham Pharmacia Biotech, product no. 17-0906-01) and immobilized recombinant Protein A (RepliGen Corp., product no. IPA-400) were also assayed as negative and positive controls. IgG targets were diluted into 10 mM phosphate buffer containing 150 mM NaCl and 0.01% Tween 20, pH 7.2 (PBST) or 50 mM Tris buffer containing, 150 mM NaCl and 0.01% Tween-20, pH 7.5 (TBST). Batch (static) binding and elution studies were conducted in a 96-well assay filterplate (Millipore MultiScreen-HV, with 0.45 μm Durapore membrane, product no. MAHVN4510). The target was allowed to incubate with the resin for 1-1.5 hours with shaking at room temperature. Unbound target was collected by centrifugation of samples from the assay plate directly into a low-UV absorbing 96-well collection plate (Costar, product no. 3635 or Greiner, product no. 655801). The unbound target was then quantitated by reading the absorbance at 280 nm (normalized to 1 cm pathlength, 1.4 mg/ml A280 extinction coefficient) of the collection plate on a microplate spectrophotometer (Molecular Devices Corp., SPECTRAmax PLUS) against a buffer blank.
(§2) The percentage bound target was determined by subtracting the mass determined as unbound from the corresponding condition's control values (control non-filtered added directly to the collection plate and/or the negative control). The assay plate was washed (3×) with 200 μl of binding buffer by vacuum filtration followed by addition of 100 μl of various elution conditions (e.g.: 0.1 M sodium bicarbonate buffer, pH 8.5 and/or 0.1 M sodium citrate buffer, pH 4.0). After a 30-60 minute incubation with shaking at room temperature, the eluted target was collected by centrifugation of the assay plate into another collection plate and quantitated in a similar manner. Percent elution of total load was then determined to characterize elution recovery efficiency under various conditions. The assay plate was then washed (3×) with 200 μl of binding buffer by vacuum filtration followed by addition of a resin cleaning condition (e.g., 0.1M CAPS buffer (3-[Cyclohexylamino]-1-propane-sulfonic acid), pH 11.5, to regenerate the resin for re-use. Percentage mass balance determination was calculated to be 90-100% on average.

[2] = molecular target: T2, human IgG2 (Homo sapiens, UniProt P01859)
T2 construct: all human subtypes derived from myeloma patients; purchased Calbiochem 400122; host or cells: myeloma patients
T2 sequence (P01859 1-326 isoform P01859-1): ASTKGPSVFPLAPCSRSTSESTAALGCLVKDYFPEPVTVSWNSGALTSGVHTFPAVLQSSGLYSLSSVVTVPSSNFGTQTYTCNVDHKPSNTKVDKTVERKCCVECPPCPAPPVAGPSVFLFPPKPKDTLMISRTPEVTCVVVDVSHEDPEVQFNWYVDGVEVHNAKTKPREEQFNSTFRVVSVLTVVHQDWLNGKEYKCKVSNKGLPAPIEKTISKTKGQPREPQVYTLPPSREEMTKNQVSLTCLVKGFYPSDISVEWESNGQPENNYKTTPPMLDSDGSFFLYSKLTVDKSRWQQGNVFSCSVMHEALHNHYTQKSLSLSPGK
Method: as §1, §2

[3] = tested on: human IgG
Method: as §1, §2

[4] = molecular target: IgG3 (Homo sapiens, UniProt P01860); parameters: all human subtypes derived from myeloma patients; purchased Calbiochem 400124; host or cells: myeloma patients
Chain of IgG3 (P01860 1-377 isoform P01860-1): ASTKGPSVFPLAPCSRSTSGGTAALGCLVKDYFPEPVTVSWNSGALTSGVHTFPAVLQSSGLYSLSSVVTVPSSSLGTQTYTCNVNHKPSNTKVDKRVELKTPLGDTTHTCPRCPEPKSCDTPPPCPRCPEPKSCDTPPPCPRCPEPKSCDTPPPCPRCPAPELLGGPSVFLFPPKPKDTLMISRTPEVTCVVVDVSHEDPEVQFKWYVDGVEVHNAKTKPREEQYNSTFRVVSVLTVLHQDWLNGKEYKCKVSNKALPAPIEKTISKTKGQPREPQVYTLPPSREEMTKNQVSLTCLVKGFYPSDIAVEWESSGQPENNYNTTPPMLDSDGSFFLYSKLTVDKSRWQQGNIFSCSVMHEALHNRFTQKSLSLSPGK
Method: as §1, §2

[5] = molecular target: IgG4 (Homo sapiens, UniProt P01861); parameters: all human subtypes derived from myeloma patients; purchased Calbiochem 400126; host or cells: myeloma patients
Chain of IgG4 (P01861 1-327 isoform P01861-1): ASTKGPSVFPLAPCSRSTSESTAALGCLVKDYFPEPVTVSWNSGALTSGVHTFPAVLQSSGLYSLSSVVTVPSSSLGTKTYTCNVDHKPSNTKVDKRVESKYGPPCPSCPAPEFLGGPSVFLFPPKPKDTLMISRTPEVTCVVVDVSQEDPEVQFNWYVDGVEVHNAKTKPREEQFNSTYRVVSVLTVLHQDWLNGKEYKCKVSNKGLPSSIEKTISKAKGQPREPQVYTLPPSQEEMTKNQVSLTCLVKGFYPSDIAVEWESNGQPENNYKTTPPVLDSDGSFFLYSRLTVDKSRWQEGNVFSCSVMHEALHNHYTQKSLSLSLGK
Method: as §1, §2

[6] = peptide immobilized on NHS activated sepharose 4 fast flow, target ligand density 2.0 μmole/ml, batch filterplate, hIgG1
[7] = peptide immobilized on NHS activated sepharose 4 fast flow, target ligand density 2.0 μmole/ml, batch filterplate, hIgG2
[8] = peptide immobilized on NHS activated sepharose 4 fast flow, target ligand density 2.0 μmole/ml, batch filterplate, hIgG
[9] = peptide immobilized on NHS activated sepharose 4 fast flow, target ligand density 2.0 μmole/ml, batch filterplate, hIgG3
[10] = peptide immobilized on NHS activated sepharose 4 fast flow, target ligand density 2.0 μmole/ml, batch filterplate, hIgG4
[11] = Table 20, average ligand density 1.9 μmole/ml

Substance	Batch Binding (% Capture of Total Load) hIgG1 [1, 6] [%]	Batch Binding (% Capture of Total Load) hIgG2 [2, 7] [%]	Batch Binding (% Capture of Total Load) hIgG [3, 8] [%]	Batch Binding (% Capture of Total Load) hIgG3 [4, 9] [%]	Batch Binding (% Capture of Total Load) hIgG4 [5, 10] [%]	Batch Binding (% Capture of Total Load) hIgG1 [1, 11] [%]	Batch Binding (% Capture of Total Load) hIgG2 [2, 11] [%]	Batch Binding (% Capture of Total Load) hIgG [3, 11] [%]	Batch Binding (% Capture of Total Load) hIgG3 [4, 11] [%]	Batch Binding (% Capture of Total Load) hIgG4 [5, 11] [%]	other results
Ac-ACSRDWSGALVWCAGHEPGPEGGGK-NH2 (not fully specified (bridges); printed as Ac-ACSRDWSGALVWCAGHEPGPEGGGK-NH2; cysteine pairing not given here) [DX1142]	66	55	57	0	39	–	–	–	–	–	–
Ac-ACVYTTWGELIWCDNHEPGPEGGGK-NH2 (not fully specified (bridges); printed as Ac-ACVYTTWGELIWCDNHEPGPEGGGK-NH2; cysteine pairing not given here) [DX1064]	–	–	–	–	–	70	63	73	0	39	–
Ac-CVYTTWGELIWCDNHEPGPEGGGK-NH2 (not fully specified (bridges); printed as Ac-CVYTTWGELIWCDNHEPGPEGGGK-NH2; cysteine pairing not given here) [DX1069]	–	–	–	–	–	77	68	74	2	51	Binding properties / profile relative to parent peptide ([3]; batch filterplate, human IgG and subtypes): almost identical to those of DX249
Ac-DHMCVYTTWGELIWCDNHEPGPEGGGK-NH2 (not fully specified (bridges); printed as Ac-DHMCVYTTWGELIWCDNHEPGPEGGGK-NH2; cysteine pairing not given here) [DX1062]	–	–	–	–	–	73	63	73	0	49	–
Ac-ECSRDWSGALVWCAGHEPGPEGGGK-NH2 (not fully specified (bridges); printed as Ac-ECSRDWSGALVWCAGHEPGPEGGGK-NH2; cysteine pairing not given here) [DX1144]	88	84	81	0	61	–	–	–	–	–	–
Ac-EHMCVYTTWGELIWCDNHEPGPEGGGK-NH2 (not fully specified (bridges); printed as Ac-EHMCVYTTWGELIWCDNHEPGPEGGGK-NH2; cysteine pairing not given here) [DX1063]	–	–	–	–	–	73	63	71	0	45	–
Ac-ERACSRDWSGALVWCAGHEPGPEGGGK-NH2 (not fully specified (bridges); printed as Ac-ERACSRDWSGALVWCAGHEPGPEGGGK-NH2; cysteine pairing not given here) [DX1141]	17	9	21	0	2	–	–	–	–	–	–
Ac-GDWGECTVTSYGELIWCGGLEPGPEGGGK-NH2 (not fully specified (bridges); printed as Ac-GDWGECTVTSYGELIWCGGLEPGPEGGGK-NH2; cysteine pairing not given here) [DX1070]	–	–	–	–	–	–	–	–	–	–	hIgG1 elution pH 3.0 (% of Total Load) ([1]; Table 13): 22%; hIgG2 elution pH 3.0 (% of Total Load) ([2]; Table 13): 42%; % IgG Capture - Batch Binding, Human IgG ([3]; Table 14, average ligand density 1.8 μM/ml): 91%; hIgG4 elution pH 3.0 (% of Total Load) ([5]; Table 13): 14%
Ac-TCSRDWSGALVWCAGHEPGPEGGGK-NH2 (not fully specified (bridges); printed as Ac-TCSRDWSGALVWCAGHEPGPEGGGK-NH2; cysteine pairing not given here) [DX1143]	88	83	81	0	55	–	–	–	–	–	–
Ac-VCSRDWSGALVWCAGHEPGPEGGGK-NH2 (not fully specified (bridges); printed as Ac-VCSRDWSGALVWCAGHEPGPEGGGK-NH2; cysteine pairing not given here) [DX1145]	74	63	66	0	42	–	–	–	–	–	–
Ac-VCVYTTWGELIWCDNHEPGPEGGGK-NH2 (not fully specified (bridges); printed as Ac-VCVYTTWGELIWCDNHEPGPEGGGK-NH2; cysteine pairing not given here) [DX1067]	–	–	–	–	–	33	28	44	0	25	–
Ac-[Nle]CVYTTWGELIWCDNHEPGPEGGGK-NH2 (not fully specified (bridges); printed as Ac-[Nle]CVYTTWGELIWCDNHEPGPEGGGK-NH2; cysteine pairing not given here) [DX1068]	–	–	–	–	–	33	25	36	0	21	–
